Results taken from paper PMC4036328.

Legend:
[1] = biological target: MjNhaP1 D161A mutant (NhaP1 Na+/H+ antiporter from Methanocaldococcus jannaschii) (Methanocaldococcus jannaschii) (UniProt Q60362); experiment: Western blotting; dimers observed by Western blotting; data not shown; no conditions told
[2] = biological target: MjNhaP1 N160A mutant (NhaP1 Na+/H+ antiporter from Methanocaldococcus jannaschii) (Methanocaldococcus jannaschii) (UniProt Q60362); experiment: as above

Substance	stoichiometry N [1]	stoichiometry N [2]
MjNhaP1 D161A mutant (NhaP1 Na+/H+ antiporter from Methanocaldococcus jannaschii) (from UniProt Q60362 1-426) (natural protein)	2	
MjNhaP1 N160A mutant (NhaP1 Na+/H+ antiporter from Methanocaldococcus jannaschii) (from UniProt Q60362 1-426) (natural protein)		2
